# No end group written: not given here.
# T1: recombinant LRP1-FC fusion protein (Cluster II) (UniProt Q07954 805-1184, limits assumed)
# T1 construct: domain: Cluster II; Captured on protein G Dynabeads; not shown: Fc part
# T1 sequence (looked up): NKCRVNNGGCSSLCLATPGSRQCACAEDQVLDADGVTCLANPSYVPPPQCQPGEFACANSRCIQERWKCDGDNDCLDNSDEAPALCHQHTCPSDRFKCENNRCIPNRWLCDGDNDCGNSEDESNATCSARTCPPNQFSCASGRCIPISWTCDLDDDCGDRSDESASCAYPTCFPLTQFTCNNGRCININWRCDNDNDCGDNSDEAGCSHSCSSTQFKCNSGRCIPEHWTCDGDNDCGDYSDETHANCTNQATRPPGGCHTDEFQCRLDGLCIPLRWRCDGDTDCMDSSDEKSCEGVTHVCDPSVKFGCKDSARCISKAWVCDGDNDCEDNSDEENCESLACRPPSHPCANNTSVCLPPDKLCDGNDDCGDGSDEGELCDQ
# T2: Recombinant LRP1 (Cluster II) (UniProt Q07954 805-1184, limits assumed)
# T2 construct: domain: Cluster II; Coated on the ELISA plate
# T2 sequence (looked up): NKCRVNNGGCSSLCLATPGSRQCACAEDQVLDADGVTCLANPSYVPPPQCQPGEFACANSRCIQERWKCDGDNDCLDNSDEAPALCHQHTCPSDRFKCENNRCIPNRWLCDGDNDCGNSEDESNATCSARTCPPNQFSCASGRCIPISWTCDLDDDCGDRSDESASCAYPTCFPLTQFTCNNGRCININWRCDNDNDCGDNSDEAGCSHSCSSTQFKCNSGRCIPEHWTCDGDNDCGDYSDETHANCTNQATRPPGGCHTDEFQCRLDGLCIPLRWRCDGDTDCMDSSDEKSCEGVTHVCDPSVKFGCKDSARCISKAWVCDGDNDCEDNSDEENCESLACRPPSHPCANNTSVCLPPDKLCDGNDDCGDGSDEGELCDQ
# Legend:
# [1] = target: TMPRSS2 (UniProt O15393 106-492, limits assumed); experiment: cell-based or functional assay
# Chain of TMPRSS2 (O15393 106-492 limits assumed): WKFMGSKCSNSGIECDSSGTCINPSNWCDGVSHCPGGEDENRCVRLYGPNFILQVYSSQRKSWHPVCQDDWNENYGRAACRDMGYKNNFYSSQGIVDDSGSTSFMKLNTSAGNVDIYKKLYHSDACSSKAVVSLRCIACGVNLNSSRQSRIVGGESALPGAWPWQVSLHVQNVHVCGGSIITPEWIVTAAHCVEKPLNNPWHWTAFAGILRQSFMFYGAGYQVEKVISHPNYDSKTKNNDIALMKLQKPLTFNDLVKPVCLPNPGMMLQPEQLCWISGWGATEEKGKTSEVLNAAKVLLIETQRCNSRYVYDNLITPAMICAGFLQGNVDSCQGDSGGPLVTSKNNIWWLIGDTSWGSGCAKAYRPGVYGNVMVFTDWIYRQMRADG
# [2] = target: T1, recombinant LRP1-FC fusion protein …; experiment: Cy5.5-labelled peptide on LRP1-FC (Cluster II) protein G beads, flow cytometry
# [3] = target: T2, Recombinant LRP1 (Cluster II); experiment: ELISA, plate-bound recombinant LRP1 (Cluster II), increasing concentrations of biotinylated peptide, streptavidin HRP
Binder,IC50 of inhibition of TMPRSS2 activity [1] [µg/mL],binding result [2],binding result [3]
VKFNKPFVFLXIEQNTK (not fully specified; Norleucine (Nle) in place of the methionine (VKFNKPFVFL[Nle]IEQNTK); N-terminus acetylated; C-terminus amidated; biotinylated in the ELISA (Figure 3); labelled with Cy5.5 in the bead assay (Figure 4)) [SP163M],1.12,,
"FPKMVPQFNTELKIFPEVNIK (also: biotinylated in ELISA, site not given here, labelled with Cy5.5 in bead assay, site not given here, Contains the amino acids found in SP16 in scrambled orientation; also called scrambled control; scrambled control SP34 peptide) [SP34 (Scrambled Core)]",,no binding (tested: 1µg/ml),no binding
"VKFNKAAAAAAIEQNTK (not fully specified, also called SP16AALRP1 peptide) [SP16AALRP1]",,no binding (tested: 1µg/ml),

# From patent EP4789728A2 (Serpin Pharma, LLC, dated 2026)
